Experimental data: US10131920B2, “Nucleic acid molecules” (MEDIMMUNE LIMITED, priority 2013, dated 2018)
Positions count from the first letter of the chain named. Names may count otherwise.

Key:
[1] = test system: GFPY40 reporter in 3H7 cells; assay: Amber suppression-dependent GFP expression (GFPY40 reporter), transient transfection of 3H7 cells, flow cytometry; type: cell-based; settings: three days; for GFP MFI, FIG. 11: 1 ug GFPY40 and 1 ug tRNA expression vector, lys-azide; for GFP MFI in the absence of nnAA, FIG. 6: no nnAA
Description: To assess the function of the tRNA variants, an in vitro assay was established where cells are transiently transfected with a tRNA construct and a reporter construct encoding GFP containing an amber codon interrupting its reading frame (GFPY40). HEK293 cells stably expressing pylRS were transiently transfected with various tRNA constructs (1 ug) and the GFPY40 reporter (1 ug). In the absence of elements that support amber suppression, a truncated GFP protein is generated and the cell is not fluorescent. However, the introduction of a functional tRNA and the presence of a nnAA that supports amber suppression allows for the production of full length GFP resulting in fluorescent cells. The level of GFP expression reflects the efficiency of amber suppression and is quantified by flow cytometry. tRNA genes encoding wild type tRNApyl (WT tRNA), or containing mutations in the B-box (B tRNA—SEQ ID No 9), in both the A and B box (A2B tRNA—SEQ ID No 10), or in the A box (A1 tRNA-SEQ ID No 7; or A2 tRNA SEQ ID No 11), all under control of the H1 promoter were generated by site directed mutagenesis and assayed. The H1 promoter ensured that the variants were expressed and allowed us to examine the functional effects of the mutations introduced into the tRNA genes. In addition a sample transfected with GFPY40 alone was generated to establish background GFP levels. The transfected cells were grown in presence of the aminoacid analogue lys azide (2 mM) and incubated for 18 hours. GFP fluorescence was then assayed by flow cytometry and mean fluorescence intensity determined for each sample. Data were analysed with FCS Express and the mean fluorescence intensity of each sample determined using markers that constrain the data set to cells showing fluorescence above negative controls. […] The constructs thus are functional and may contain the necessary genetic sequence to enable the expression of the tRNA also in the absence of an upstream promoter element such as the H1 promoter.
Having established that the B mutation introduced into the pyltRNA sequence enabled expression of the tRNA that supported amber suppression we then asked whether this mutation affected the orthogonality of the tRNA and led to the incorporation of natural amino acids. To do this 3H7 cells were transiently transfected with expression constructs encoding WT-tRNA, B-tRNA, H1-tRNA and H1-B tRNA along with the GFPY40 reporter. Transfected cells were grown in the presence of 2 mM lys azide or absence of nnAA as indicated (FIG. 6), and GFP expression assessed by flow cytometry after three days. In addition, a sample transfected only with GFPY40 was examined to determine background amber suppression levels in the absence of tRNA. […] A comparison of GFP expression between the WT tRNA (MFI 33,781) and tRNA B (232,505) lacking extragenic promoter elements confirms that the B mutation generates a functional intragenic promoter. Indeed, the B tRNA construct enabled a seven-fold increase in the level of amber suppression dependent expression of GFP over WT tRNA.
We also tested the utility of a bicistronic tRNA expression construct for its ability to express tRNApyl. Here, the murine tRNA Glu and tRNA Asp were utilized. In each case, multiple repeats of the constructs were generated to increase activity (3×Glu-pyl and 2×Asp-pyl). Here, 3H7 cells were transiently transfected with 1 ug of the reporter construct GFPY40 and 1 ug of the indicated tRNA expression vectors (FIG. 11) and incubated with lys-azide for three days. Data were collected by flow cytometry and mean fluorescence intensities for each sample were plotted. […] The construct consisting of the 7SL WT tRNA (MFI=312) was included as a metric for low efficiency. In addition cell lines containing only the GFPY40 reporter were used as negative controls (MFI=0).

[2] = test system: GFPY40 reporter (GFP containing an amber codon) in HEK293 cells stably expressing pylRS; assay: Amber suppression-dependent GFP expression (GFPY40 reporter), transient transfection, flow cytometry; type: cell-based; settings: for GFP MFI, FIG. 9: 1 ug GFPY40 reporter and 1 ug tRNA expression plasmid; for GFP MFI, single copy tRNA, FIG. 7 / GFP MFI, tandem copies of tRNA, FIG. 7: cells expressing WTpylRS, after two days; for GFP MFI, tandem copies of tRNA, FIG. 7: single vector containing two copies in tandem; for GFP MFI, FIG. 10: cells stably expressing WTpylRS, lys azide; for GFP MFI, FIG. 8: 1 ug PCR product of each construct, lys azide nnAA
Description: To assess the function of the tRNA variants, an in vitro assay was established where cells are transiently transfected with a tRNA construct and a reporter construct encoding GFP containing an amber codon interrupting its reading frame (GFPY40). HEK293 cells stably expressing pylRS were transiently transfected with various tRNA constructs (1 ug) and the GFPY40 reporter (1 ug). In the absence of elements that support amber suppression, a truncated GFP protein is generated and the cell is not fluorescent. However, the introduction of a functional tRNA and the presence of a nnAA that supports amber suppression allows for the production of full length GFP resulting in fluorescent cells. The level of GFP expression reflects the efficiency of amber suppression and is quantified by flow cytometry. tRNA genes encoding wild type tRNApyl (WT tRNA), or containing mutations in the B-box (B tRNA—SEQ ID No 9), in both the A and B box (A2B tRNA—SEQ ID No 10), or in the A box (A1 tRNA-SEQ ID No 7; or A2 tRNA SEQ ID No 11), all under control of the H1 promoter were generated by site directed mutagenesis and assayed. The H1 promoter ensured that the variants were expressed and allowed us to examine the functional effects of the mutations introduced into the tRNA genes. In addition a sample transfected with GFPY40 alone was generated to establish background GFP levels. The transfected cells were grown in presence of the aminoacid analogue lys azide (2 mM) and incubated for 18 hours. GFP fluorescence was then assayed by flow cytometry and mean fluorescence intensity determined for each sample. Data were analysed with FCS Express and the mean fluorescence intensity of each sample determined using markers that constrain the data set to cells showing fluorescence above negative controls.
To begin to assess whether the tRNA mutations can support expression of the tRNA we assayed tRNA constructs encoding the wild type tRNA in the absence of the H1 promoter. Constructs encoding wild type tRNApyl (WT tRNA) or containing mutations in the B-box (B tRNA—SEQ ID No 9) or in both the A and B box (A2B; A2B tRNA—SEQ ID No 10) were assayed using our in vitro amber suppression assay described above. WT tRNA under control of the H1 promoter (H1-tRNA) was used as a positive control, and in addition one sample was transfected only with the GFPY40 reporter to illustrate background amber suppression in the absence of tRNA. The transfected cells were exposed to 2 mM lys-azide nnAA and cells incubated for three days. GFP expression was examined by flow cytometry and mean fluorescence intensity determined.
Two copies of the WT, B, or A2B tRNA were cloned in tandem to generate a single vector containing two copies of WT, B, or A2B tRNA. To assess the effect of increased gene doses by these constructs, cells expressing WTpylRS were transiently transfected with the tRNA constructs and the GFPY40 reporter construct and GFP expression assayed after two days.
The activity of each construct was assessed by transient transfection into cells stably expressing WT pylRS with the GFPY40 reporter as described above. For this experiment, 1 ug of a PCR product encoding each of the indicated constructs was used. In each case, cells were exposed to the lys azide nnAA for three days and GFP levels assayed by flow cytometry. Mean fluorescence intensities were determined for each sample and plotted (FIG. 8).

[3] = 2 mM lys-azide nnAA, three days

B1: 2×Asp: two tandem repeats of the murine tRNA asp-pyl tRNA bicistronic pair (nucleic acid)
DNA: TCCTCGTTAGTATAGTGGTGAGTATCCCCGCCTGTCACCCGCGAGACCGGCGTTCCATTCCCCGACGGGGAGACGTAGCCCCACCTCGGAAACCTGATCATGTAGATCGAATGGACTCTAAATCCGTTCAGCCGGGTTAGATTCCCGGGGTTTCCGTAGCGTCCTTTTTGGAAAGACAAGGTGCGTCGTAGTCGGCGTTGTCCTCGTTAGTATAGTGGTGAGTATCCCCGCCTGTCACCCGCGAGACCGGCGTTCCATTCCCCGACGGGGAGACGTAGCCCCACCTCGGAAACCTGATCATGTAGATCGAATGGACTCTAAATCCGTTCAGCCGGGTTAGATTCCCGGGGTTTCCGTAGCGTCCTTTTT
modifications: Synthetic sequence 2x tRNAasp-pyl DNA construct including 2 repeats of the bicistronic construct tRNAasp-pyl
notes: two tandem repeats of the murine tRNA asp-pyl tRNA bicistronic pair
Question: With B1 as the molecule, how does the “GFP MFI, FIG. 11” value [1] read?
Answer: 419

B2: B tRNA: tRNApyl Methanosarcina mazei with A52C mutation (B-box) (nucleic acid)
DNA: GGAAACCTGATCATGTAGATCGAATGGACTCTAAATCCGTTCAGCCGGGTTCGATTCCCGGGGTTTCCG
modifications: expressed or natural sequence
Question: Which results are given for B2?
Answer: GFP MFI in the presence of lys-azide, FIG. 6 ([1]; 2 mM lys azide): 232,505; increase in amber suppression dependent expression of GFP over WT tRNA (FIG. 6) ([1]; 2 mM lys azide): seven-fold; GFP MFI in the absence of nnAA, FIG. 6 [1]: 42,104; GFP MFI, FIG. 9 [2]: 89,869; GFP mean fluorescence intensity (MFI), FIG. 5 [2, 3]: 410,131.1; fold higher expression of GFP than the wt tRNA construct (FIG. 5) [2, 3]: four-fold; capacity to support amber suppression relative to H1 WT tRNA (FIG. 4) ([2]; all tRNA variants under control of the H1 promoter, 1 ug construct + 1 ug GFPY40, lys azide 2 mM, 18 hours): support amber suppression, albeit at a lower level than the WT tRNA; GFP MFI, single copy tRNA, FIG. 7 [2]: 67,489; GFP MFI, tandem copies of tRNA, FIG. 7 [2]: 110,941; GFP MFI, FIG. 10 ([2]; three days): 329

B3: WT tRNA: wild type tRNApyl gene of Methanosarcina mazei without extragenic promoter (nucleic acid, listed as Methanosarcina mazei)
DNA: B2 DNA with C52A
modifications: expressed or natural sequence
notes: wild type tRNApyl gene of Methanosarcina mazei without extragenic promoter
Question: B3 was tested. Which “GFP MFI in the presence of lys-azide, FIG. 6” value ([1]; 2 mM lys azide) did it give?
Answer: 33,781

Question: And the “GFP MFI, FIG. 9” value [2]?
Answer: 25,459

Question: And the “GFP MFI, FIG. 8” value ([2]; three days)?
Answer: 117,626

Question: And the “GFP mean fluorescence intensity (MFI), FIG. 5” value [2, 3]?
Answer: 114,478.1

Question: And the “GFP MFI, single copy tRNA, FIG. 7” value [2]?
Answer: 18,002

Question: And the “GFP MFI, tandem copies of tRNA, FIG. 7” value [2]?
Answer: 20,617

B4: 3×Glu: three tandem repeats of the murine tRNA glu and pyltRNA bicistronic pair (nucleic acid)
DNA: GCCGTGACCTCGGGCCGACGCTCCCTGGTGGTCTAGTGGTTAGGATTCGGCGCTCTCACCGCCGCGGCCCGGGTTCGATTCTCGGTCAGGGAAGCCTCTCCCCCAAACCTCGGAAACCTGATCATGTAGATCGAATGGACTCTAAATCCGTTCAGCCGGGTTAGATTCCCGGGGTTTCCGCTTCTTCCTCTTTTCTGCACCCTCACTTCAGCTGAGCCGTGACCTCGGGCCGACGCTCCCTGGTGGTCTAGTGGTTAGGATTCGGCGCTCTCACCGCCGCGGCCCGGGTTCGATTCTCGGTCAGGGAAGCCTCTCCCCCAAACCTCGGAAACCTGATCATGTAGATCGAATGGACTCTAAATCCGTTCAGCCGGGTTAGATTCCCGGGGTTTCCGCTTCTTCCTCTTTTCTGCACCCCAATATTGCCGTGACCTCGGGCCGACGCTCCCTGGTGGTCTAGTGGTTAGGATTCGGCGCTCTCACCGCCGCGGCCCGGGTTCGATTCTCGGTCAGGGAAGCCTCTCCCCCAAACCTCGGAAACCTGATCATGTAGATCGAATGGACTCTAAATCCGTTCAGCCGGGTTAGATTCCCGGGGTTTCCGTAGCGTCCTTTTTGGAAAGACAAGTGGGTGGCGAATTCGATATC
modifications: Synthetic sequence 3x tRNAglu-pyl DNA construct including 3 repeats of the bicistronic construct tRNAglu-tRNApyl
notes: three tandem repeats of the murine tRNA glu and pyltRNA bicistronic pair
Question: How did the “GFP MFI, FIG. 11” value [1] turn out when B4 was run?
Answer: 419

B5: 7SL WT tRNA: WT tRNApyl downstream of the 7SL promoter 5′ region (nucleic acid)
DNA: CCCAGTTGATGACGTCACCATACCACAGCTTCTAGTGCTATTCTGCGCCGGTATCCGACCACCAGGAAACCTGATCATGTAGATCGAATGGACTCTAAATCCGTTCAGCCGGGTTAGATTCCCGGGGTTTCCGGACAAGTGCGGTTTTT
modifications: Synthetic sequence 7SL tRNA-WT construct
notes: WT tRNApyl downstream of the 7SL promoter 5′ region
Question: With B5 as the molecule, how does the “GFP MFI, FIG. 11” value [1] read?
Answer: 312

Question: And the “GFP MFI, FIG. 8” value ([2]; three days)?
Answer: 106,075

Question: And the “GFP MFI, FIG. 10” value ([2]; three days)?
Answer: 312

B6: H1-tRNA: WT tRNApyl under control of the H1 promoter, positive control (nucleic acid)
DNA: AATATTTGCATGTCGCTATGTGTTCTGGGAAATCACCATAAACGTGAAATCCCTATCAGTGATAGAGACTTATAAGTTCCCTATCAGTGATAGAGACACCAGGAAACCTGATCATGTAGATCGAATGGACTCTAAATCCGTTCAGCCGGGTTAGATTCCCGGGGTTTCCGGACAAGTGCGGTTTTTTT
modifications: Synthetic sequence H1 tRNA-WT construct
Question: Which results are given for B6?
Answer: GFP MFI, FIG. 11 [1]: 453; GFP MFI in the presence of lys-azide, FIG. 6 ([1]; 2 mM lys azide): 347,958; GFP MFI in the absence of nnAA, FIG. 6 [1]: 33,452; GFP MFI, FIG. 9 [2]: 241,901; GFP MFI, FIG. 8 ([2]; three days): 828,503; GFP mean fluorescence intensity (MFI), FIG. 5 [2, 3]: 1,004,228.00; GFP MFI, FIG. 10 ([2]; three days): 453
